{"source": "patent US20180118818A1", "key": {"[1]": {"target": "green fluorescent protein (GFP) (Aequorea-derived) [GFP: P42212]", "assay": "cell-based or functional assay"}, "DsRed": {"target": "DsRed (UniProt Q9U6Y8)", "sequence (Q9U6Y8 whole entry)": "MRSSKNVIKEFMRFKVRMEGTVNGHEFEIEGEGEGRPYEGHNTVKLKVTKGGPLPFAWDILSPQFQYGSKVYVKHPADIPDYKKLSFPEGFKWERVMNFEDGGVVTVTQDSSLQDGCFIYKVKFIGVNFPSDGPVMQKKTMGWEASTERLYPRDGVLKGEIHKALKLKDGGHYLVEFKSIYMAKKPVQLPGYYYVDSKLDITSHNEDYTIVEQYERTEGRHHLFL", "assay": "cell-based or functional assay"}}, "data": [{"substance": "dGBP1x2-Flpo (Flp dependent on GFP, Flp-DOG) (VHH)", "values": [{"measurement": "fold induction of the Flp-dependent luciferase reporter by GFP, 293T cells", "setting": "[1]", "value": 636, "unit": "fold"}]}, {"substance": "dGBP1-TagBFP (destabilized GBP1 fused to TagBFP) (VHH)", "values": [{"measurement": "% TagBFP+ given GFP+ or DsRed+ cells in ONL (+CAG-DsRed)", "setting": "DsRed", "value": 0, "unit": "%"}, {"measurement": "% Anti-TagBFP+ given GFP+ cells (CAG promoter for GFP, INL)", "setting": "[1]", "value": 97, "unit": "%"}, {"measurement": "% Anti-TagBFP+ given GFP+ cells (CAG promoter for GFP, ONL)", "setting": "[1]", "value": 100, "unit": "%"}, {"measurement": "% Anti-TagBFP+ given GFP+ cells (Rho promoter for GFP, ONL)", "setting": "[1]", "value": 100, "unit": "%"}, {"measurement": "% GFP+ cells given Anti-TagBFP+ cells (CAG promoter for GFP, INL)", "setting": "[1]", "value": 99, "unit": "%"}, {"measurement": "% GFP+ cells given Anti-TagBFP+ cells (CAG promoter for GFP, ONL)", "setting": "[1]", "value": 100, "unit": "%"}, {"measurement": "% GFP+ cells given Anti-TagBFP+ cells (Rho promoter for GFP, ONL)", "setting": "[1]", "value": 100, "unit": "%"}, {"measurement": "% TagBFP+ given GFP+ or DsRed+ cells in ONL (+CAG-GFP)", "setting": "[1]", "value": 91, "unit": "%"}]}]}
